{"source": "patent US20230399394A1", "about": "(SUNSHINE GUOJIAN PHARMACEUTICAL SHANGHAI, published 2023)", "key": {"[1]": {"molecular_target": "T1, Cynomolgus IL-33-his (cynomolgus, UniProt A0A2K5W3I1 112-269, biotinylated in the ELISA of Example 6)", "T1 construct": "Bought protein; also called cynomolgus IL-33 protein; Cynomolgus monkeys IL-33", "T1 sequence": "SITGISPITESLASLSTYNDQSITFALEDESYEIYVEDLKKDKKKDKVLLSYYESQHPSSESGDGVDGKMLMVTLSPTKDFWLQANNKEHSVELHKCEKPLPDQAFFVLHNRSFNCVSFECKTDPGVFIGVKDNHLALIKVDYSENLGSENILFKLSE", "assay": "SPR Biacore 8K as Example 14, antibody captured, antigen as analyte", "method": "(§1) A chip with covalently coupled Protein A/G (purchased from GE Healthcare, catalog number BR-1005-30) was used to capture each antibody to be tested, and the relevant operating parameters were as follows: The antibody concentration was […], the contact time was 75 s, the flow rate was […], and the regeneration contact time was 30 s. The IL-33-his antigen was diluted with HBS-EP pH7.4 buffer solution (purchased from GE Healthcare, catalog number BR-1006-69). The maximum concentration was 50 nM, and diluted to 0.39 nM by two-fold dilution. Duplicate wells and 0 concentration point well were set, and 6M guanidine hydrochloride solution was used as the regeneration buffer. The sample was injected on Biacore 8K according to the following parameters, the binding time was 180 s, the dissociation time was 900 s, the flow rate was 30 μL/min, and the regeneration contact time was 30 s. After running, Biacore 8K Evaluation Software was used to analyze the data according to the “1:1 binding kinetics model”, and the binding kinetics parameters of each antibody to IL-33 were obtained.\n(§2) The experimental methods were referred to Example 14, in which the antigens cynomolgus IL-33 protein (purchased from Sino catalog number 90912-CNAE) and mouse IL-33 protein (purchased from R&D, 3626-ML-010/CF) were used, and human IL-33 protein was used as the control. Both 864F3-Hu4 and 874F7-Hu1 cross-react with cynomolgus IL-33 protein, and are consistent with the characteristics of each antibody binding to human IL-33 protein."}, "[2]": {"molecular_target": "T2, Mouse IL-33 protein (mouse, UniProt Q8BVZ5 109-266)", "T2 construct": "Bought protein", "T2 sequence (looked up)": "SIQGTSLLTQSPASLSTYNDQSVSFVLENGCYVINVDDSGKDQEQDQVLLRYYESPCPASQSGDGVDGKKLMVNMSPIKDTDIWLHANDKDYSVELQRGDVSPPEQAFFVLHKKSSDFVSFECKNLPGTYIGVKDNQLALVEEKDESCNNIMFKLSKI", "assay": "SPR Biacore 8K as Example 14, antibody captured, antigen as analyte", "method": "as §1, §2"}, "[3]": {"molecular_target": "T3, Human IL-33-his (human, UniProt O95760 112-270, biotinylated with EZ-Link NHS-Biotin where used as IL-33-his-biotin)", "T3 construct": "Used plain (SPR, cell assays) and biotinylated (ELISA); also called IL-33-his-biotin", "T3 sequence": "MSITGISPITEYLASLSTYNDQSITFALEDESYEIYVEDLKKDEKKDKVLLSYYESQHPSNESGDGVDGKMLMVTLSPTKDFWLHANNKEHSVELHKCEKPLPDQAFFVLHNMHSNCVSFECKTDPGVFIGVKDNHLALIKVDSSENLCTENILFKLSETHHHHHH", "assay": "SPR Biacore 8K as Example 14, antibody captured, antigen as analyte", "method": "as §1, §2"}, "[4]": {"molecular_target": "T4, IL-33 mutant protein V67A (human, UniProt O95760 112-270)", "T4 construct": "Prokaryotic expression", "T4 chain": "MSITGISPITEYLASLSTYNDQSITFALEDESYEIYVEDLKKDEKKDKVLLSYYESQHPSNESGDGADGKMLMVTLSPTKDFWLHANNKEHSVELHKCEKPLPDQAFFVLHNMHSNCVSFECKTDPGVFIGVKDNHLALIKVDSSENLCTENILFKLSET", "assay": "ELISA as Example 9; row V67A against WT-3", "method": "(§3) SA protein was diluted to 2 μg/mL to coat ELISA plate at 100 μL/well overnight at 4° C. The plate was washed with PBST (PBS containing 0.05% Tween20) for 3 times, and blocked with 2% BSA prepared in PBS at 200 μL/well, at room temperature for 2 h. After the plate was washed twice with PBST, IL-33-his-biotin protein was diluted to 1 μg/mL with 1% BSA prepared in PBST, and was added to ELISA plate at 100 μL/well. The plate was incubated at room temperature for 1 h, and each monoclonal antibody was diluted with 1% BSA prepared in PBST in a 3-fold gradient. The highest concentration of antibody was 10 μg/mL, and the antibody was diluted for 12 gradients. Each diluted monoclonal antibody was added to ELISA wells with 100 μL/well, and the plate was incubated at room temperature for 1 h. Each sample was added to duplicate wells in parallel. The plate was washed with PBST for 3 times, and HRP-anti human IgG Fc secondary antibody prepared with PBST was diluted at an appropriate ratio, and was added to ELISA wells at 100 μL/well. […] Each reaction solution was shaken uniformly and OD450 nm was read on a microplate reader. The data was analyzed and EC₅₀ was calculated.\n(§4) Subsequently, according to the experimental method of Example 9, the affinity of the above mutant proteins to 874F7-Hu1 was determined, and IL-33 proteins (WT-1, WT-2, WT-3, and WT-4) without any mutation were set as controls."}, "[5]": {"molecular_target": "T5, IL-33 protein without any mutation (WT) (human, UniProt O95760 112-270)", "T5 construct": "Control of the alanine scan (four runs WT-1 to WT-4); also called WT-1; WT-2", "T5 sequence": "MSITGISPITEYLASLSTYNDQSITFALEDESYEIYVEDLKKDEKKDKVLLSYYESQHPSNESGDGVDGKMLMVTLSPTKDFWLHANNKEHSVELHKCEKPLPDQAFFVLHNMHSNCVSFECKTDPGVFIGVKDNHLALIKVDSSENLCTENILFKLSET", "assay": "ELISA as Example 9; row WT-4, the reference itself", "method": "as §3, §4"}, "[6]": {"molecular_target": "T6, IL-33 mutant protein S63A (human, UniProt O95760 112-270)", "T6 construct": "Prokaryotic expression", "T6 chain": "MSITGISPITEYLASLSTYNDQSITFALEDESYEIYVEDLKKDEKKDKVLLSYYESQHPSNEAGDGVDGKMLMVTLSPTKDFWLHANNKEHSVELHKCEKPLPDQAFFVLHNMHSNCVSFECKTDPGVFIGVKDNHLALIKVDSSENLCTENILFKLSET", "assay": "ELISA as Example 9; row S63A", "method": "as §3, §4"}}}
{"binder": "874F7-Hu1 (antibody, human IgG4 S228P, kappa, also called 874F7-Hul; humanized antibody 874F7-Hu1) heavy: not shown light: DIQMTQSPSSVSASVGDRVTITCLASQTIGAWLAWYQQKPGKSPKLLIYAATRLADGVPSRFSGSGSGTDFTLTISSLQPEDFATYYCQQLDSSPYTFGQGTKVEIKRTVAAPSVFIFPPSDEQLKSGTASVVCLLNNFYPREAKVQWKVDNALQSGNSQESVTEQDSKDSTYSLSSTLTLSKADYEKHKVYACEVTHQGLSSPVTKSFNRGEC", "values": [{"measurement": "Kd", "setting": "[1]", "result": 1.27, "unit": "nM"}, {"measurement": "koff", "setting": "[1]", "result": 0.000349, "unit": "s⁻¹"}, {"measurement": "kon", "setting": "[1]", "result": 273000, "unit": "M⁻¹ s⁻¹"}, {"measurement": "Kd", "setting": "[2]", "result": 33.2, "unit": "nM"}, {"measurement": "koff", "setting": "[2]", "result": 0.00212, "unit": "s⁻¹"}, {"measurement": "kon", "setting": "[2]", "result": 64000, "unit": "M⁻¹ s⁻¹"}, {"measurement": "Kd", "setting": "[3]", "result": 1.13, "unit": "nM"}, {"measurement": "koff", "setting": "[3]", "result": 0.000204, "unit": "s⁻¹"}, {"measurement": "kon", "setting": "[3]", "result": 180000, "unit": "M⁻¹ s⁻¹"}, {"measurement": "Affinity decline ratio", "setting": "[4]", "result": 0.6, "unit": "fold"}, {"measurement": "Affinity decline ratio", "setting": "[5]", "result": 1, "unit": "fold"}, {"measurement": "EC50", "setting": "[6]", "result": 0.16, "unit": "nM"}]}
